Positions count from the first letter of the chain named.

B1: H1H7814N: human-Fc anti-STEAP2 antibody, HCVR/LCVR SEQ ID NOs 218/226 (antibody, V domains shown)
VH: QVQLVESGGGVVQPGRSLRLSCVASGFTISSYGMNWVRQAPGKGLEWVAVISYDGGNKYSVDSVKGRFTISRDNSKNTLYLQMNSLRAEDSAVYYCARGRYFDLWGRGTLVTVSS
VL: DIQMTQSPSTLSASVGDRVTITCRASQSISSWLAWYQQKPGRAPNLLISKASSLKSGVPSRFSGSGSGTEFTLTVSSLQPDDFATYYCQQYYSYSYTFGQGTKLEIK
modifications: human Fc
B2: H2M11162N: anti-STEAP2 antibody, mouse IgG2 Fc, HCVR/LCVR SEQ ID NOs 250/258 (antibody, V domains shown)
VH: QVQLQQSGPGLVKPSQTLSLTCAISGDSVSSNRAAWNWIRQSPSRGLQWLGRTYYRSKWYNDYAVSLRSRITINPVTSKNQVALHMNSVTPEDTAVYYCARAGIVVVPGPETFYYYDHGLDVWGQGTTVTVSS
VL: DIQMTQSPSSLSASVGDRVTITCRASQSIRSYLNWYQQKPGKAPELLIHAASSLQSGVPSRFSGSGSGTDFTLTISSLQPEDFASYYCQQSYSAPPITFGQGTRLEIK
modifications: mouse IgG2 Fc
B3: H2M11164N: anti-STEAP2 antibody, mouse IgG2 Fc, HCVR/LCVR SEQ ID NOs 282/290 (antibody, V domains shown)
VH: B2 VH with A23V, S31T, R33S, Q48E, L67V, M86L, F113Y, D117Y
VL: B2 VL with S28N, E45K, A50V, S85T, A94T, Q101H
modifications: mouse IgG2 Fc
B4: H1H11880P: anti-STEAP2 antibody, HCVR/LCVR SEQ ID NOs 34/42 (antibody, V domains shown)
VH: EVQLVESGGGLVQPGGSLRLSCAASGFTFSTYAMHWVRQAPGKGLQHVSTISTNGVNTYYADSVKGRFTISRDNSKSTLYLQMGSLRAEDMAVYYCARDKDFWSGYFDYWGQGTLVTVSS
VL: EIVMTQSPGTLSVSPGERATLSCRASQSVSSNLAWYHQKPGQAPRLLIYGASTRATGFPARFSGSGSGTEFTLTISSLQSEDFAAYYCQQYNNWPITFGQGTRLEIK

In the test the test system is C4-2 cells (high-STEAP2 expressing). The test is described as follows: Internalization and total binding on C4-2 cells (imaging, qualitative score). Particulars: 10 μg/ml antibody. Set-up: key: − (no internalization or binding); +(weak internalization or binding); ++(moderate internalization or binding); +++(robust internalization or binding). In kind it is cell-based, human. How it is done: Briefly, 20,000 C4-2 cells were seeded in PDL coated 96 well plates. The next day, cells were incubated with anti-human STEAP2 antibodies (10 μg/ml) for 30 min on ice followed by two PBS washes. Cells were then incubated with alexa488-conjugated anti-hFc Fab secondary antibody for 30 minutes on ice, followed by two additional PBS washes. Antibodies were allowed to internalize for 1 h at 37° C. in internalization buffer (PBS+2% FBS) or were maintained at 4° C. Cells were fixed in 4% formaldehyde, nuclei were stained with DRAQ5 (Cell signaling), and images were acquired on the ImageXpress micro XL (Molecular Devices).
A qualitative visual assessment of the total binding intensity and the intensity of antibodies that had internalized into vesicles was performed and scored according to the following criteria: − (no internalization or binding), +(weak internalization or binding), ++(moderate internalization or binding) and +++(robust internalization or binding).
B1: the “Internalization (37° C., 1 h) Qualitative Score” value (“Internalization” below) is listed as “+” and the “Total Binding (4° C.) Qualitative Score” value is “+”.
Take B2: the “Internalization” value is “+++” and the “Total Binding (4° C.) Qualitative Score” value is “+++”.
On to B3, for which the “Internalization” value is “+++” and the “Total Binding (4° C.) Qualitative Score” value is given as “+++”.
Turning to B4, the “Internalization” value was “+” and the “Total Binding (4° C.) Qualitative Score” value is reported as “+”.

These data come from patent US10772972B2, “Anti-STEAP2 antibody drug conjugates, and compositions and uses thereof” (Regeneron Pharmaceuticals, Inc., priority 2016, dated 2020).
